Publication PMC3091828
Where two headings read alike, the source gives them in different places.

Tests used:
[1] = target: CL-arrestin-2-L33C, bimane-labeled (UniProt P17870); test: fluorescence polarisation
[2] = target: CL-arrestin-2-L33C, bimane-labeled (UniProt P17870); test: fluorescence polarisation; remark: listed apart in the source

Chain of MBP-parkin (O60260 whole entry): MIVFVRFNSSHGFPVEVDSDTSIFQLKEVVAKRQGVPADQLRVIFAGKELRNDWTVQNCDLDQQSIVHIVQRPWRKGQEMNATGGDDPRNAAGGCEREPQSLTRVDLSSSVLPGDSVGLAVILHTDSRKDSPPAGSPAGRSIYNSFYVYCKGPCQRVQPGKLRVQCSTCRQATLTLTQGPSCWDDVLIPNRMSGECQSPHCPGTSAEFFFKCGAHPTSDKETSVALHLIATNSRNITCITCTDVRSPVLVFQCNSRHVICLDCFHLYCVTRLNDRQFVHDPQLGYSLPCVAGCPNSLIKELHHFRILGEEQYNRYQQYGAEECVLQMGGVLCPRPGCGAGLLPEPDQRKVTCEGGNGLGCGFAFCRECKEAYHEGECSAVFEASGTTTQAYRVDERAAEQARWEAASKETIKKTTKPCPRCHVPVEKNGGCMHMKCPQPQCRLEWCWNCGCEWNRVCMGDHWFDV

Kd [1]: 20.1 µM | Kd [2]: 19 µM
Substance: MBP-parkin (from UniProt O60260 1-465) (enzyme)
